Source: patent US9636415B2, “Bispecific molecule binding TLR9 and CD32 and comprising a T cell epitope for treatment of allergies” (S-TARget therapeutics GmbH, priority 2006, dated 2017)

Legend:
[1] = test system: PBMC; assay: IFN and IL-4 ELISA in pooled PBMC culture supernatants after immunization with SG100; format: in vivo, rhesus monkey; settings: positive control, data not shown; PBMC of SG100-immunized animals
Procedure: 5 healthy house dust mite (HDM) naïve rhesus monkeys were immunized 3× with SG100 (100 μg/shot) absorbed on Alum) on d0, d14 and d28. Blood samples were taken on d0 and d49 for T cell activation and antibody production.
Proliferation: PBMC ([…]) were cultured for 4 days (37° C./5% CO2/99% humidity) in 8 plex with medium, warhead (2 μg/ml), Immunogen (2 μg/ml), Der p1 (2 μg/ml), Der p2 (2 μg/ml), Der p5 (2 μg/ml) and Der p7 (2 μg/ml). As positive control Con A (Concanavaline A, Sigma) was used. Proliferation was measured by [3H]-thymidine (0.5 μCi/well) during the final 18 hrs of a 4 day culture. Cells were harvested for β-scintillation counting (Topcount NXT, Packerd, Ramsey, Minn., USA). Net counts per minutes were calculated by subtracting the counts of the medium control from the counts induced by the different antigens.
From each well of the 8plex stimulations of the proliferation experiment, 50 μl supernatant was taken after 24 h and pooled. The pooled supernatants were tested for the presence of IFN and IL-4 using commercially available ELISA kits from U-Cytech, Utrecht The Netherlands).

[2] = test system: pDCS in PBMC; assay: IL-6 and TNFα production after stimulation with CpG targeted to CD32 by aCD32a peptide (Example 10); format: cell-based, human; settings: CpG without targeting
Procedure: Buffy coats were obtained from the Red Cross Austria. Cells were separated on ficoll hypack.
Freshly isolated PBMC's were incubated with 200 μg/ml aCD32a peptide published by Berntzen et al (J. Biol. Chem. (2009) 284:1126-1135; sequence ADGAWAWVWLTETAVGAAK-biotin, SEQ ID NO:68) in PBA (PBS containing 5% BSA) on ice for 30 minutes and washed twice with PBA, followed by an incubation with 10 μg/ml streptavidin in PBA on ice for 30 minutes and two times washing with PBA. Subsequently, PBMC's were incubated on ice for 15 minutes with either PBA, 5 μg/ml ODN-CpG C (M362, Axorra) in PBA or 5 μg/ml ODN-CpG C-3′-biotin in PBA (M362, Girindus). Unbound ODN-CpG C was washed away three time with PBA and PBMCs were cultured overnight (37° C., 5% CO2) in X-VIVO-15 medium (Cambrex), supplemented with 2% of decomplemented human AB+ serum. Supernatants were collected from PBMC cultures after overnight stimulation, and […] was analyzed with murine monoclonal capture and HRP-conjugated anti-IL-6 or TNF^L antibodies (BenderMed systems) using standard ELISA procedures.

[3] = test system: human pDCs; assay: IFNα production of pDCs after stimulation with CpG targeted to CD32, AT10 or ScFV from IV.3 (Example 9); format: cell-based; settings: CpG without targeting; p<0.04 resp. p<0.02
Procedure: Buffy coats were obtained from healthy volunteers according to institutional guidelines and pDCs were purified by positive isolation using anti-BDCA-4-conjugated magnetic microbeads (Miltenyi Biotec) and cultured in X-VIVO-15 medium (Cambrex) supplemented with 2% of decomplemented human AB+ serum. pDCs purity was routinely up to 95%, as assessed by double staining BDCA-2/CD123 (Miltenyi Biotec) in a FACS.
Subsequently, pDCs were incubated on ice for 15 minutes with either PBA, 5 μg/ml ODN-CpG C (M362, Axorra) in PBA or 5 μg/ml ODN-CpG C-3′-biotin in PBA (M362, Biosearch Technologies). Unbound ODN-CpG C was washed away three time with PBA and pDCs were cultured overnight (37° C., 5% CO2) in X-VIVO-15 medium (Cambrex), supplemented with 2% of decomplemented human AB+ serum. Supernatants were collected from pDC cultures after overnight stimulation, and IFNα production was analyzed with murine monoclonal capture and HRP-conjugated anti-IFNα antibodies (BenderMed systems) using standard ELISA procedures.

[4] = test system: mice; assay: IgG1 and IgG2a ELISA after s.c. immunization of mice with ScFV-1-coil or warhead; format: in vivo, mouse; settings: day 28, s.c. 2x 35 μg d0, d14
Procedure: 24 mice (6/group) were immunized s.c. 2× with 35 μg in 150 μl ScFV-1-coil or with warhead (ScFV-1-coil-M362) either formulated on Alum or diluted in PBS. Immunizations were done on d0, and d14, sera were taken on d0 (before immunization) and d28 and analyzed for IgG1 and IgG2a against ScFV-1-coil (indicated as ScFV) and mAb IV.3 by standard ELISA.

[5] = independent of the presence of Alum

Molecule: Concanavaline A [Con A]
- IL-4 after stimulation with Con A [1]: IL-4 was seen

Molecule: TCGTCGTCGTTCGAACGACGTTGAT (chemistry not fully specified) [CpG standard, CpG class C oligodeoxynucleotide, TLR9 agonist, used without targeting]
- IL-6 production: times less potent than CpG targeted to CD32 [2]: ~75 times
- potency of IFNα induction compared to CpG targeted to CD32 [3]: significantly less potent

B1: warhead (conjugate)
scFv: EVQLQQSGPELKKPGETVKISCKASGYTFTNYGMNWVKQAPGKGLKWMGWLNTYTGESIYPDDFKGRFAFSSETSASTAYLQINNLKNEDMATYFCARGDYGYDDPLDYWGQGTSVTVSSGGGGSGGGGSGGGGSDIVMTQAAPSVPVTPGESVSISCRSSKSLLHTNGNTYLHWFLQRPGQSPQLLIYRMSVLASGVPDRFSGSGSGTAFTLSISRVEAEDVGVFYCMQHLEYPLTFGAGTKLELKGSISAWSHPQFEKGPEVSALEKEVSALEKEVSALEKEVSALEKEVSALEK
- IgG1 response to ScFV-1-coil [4, 5]: strong
- IgG1 response to mAb IV.3 [4, 5]: strong
- IgG2 response to ScFV-1-coil [4, 5]: strong
- IgG2 response to mAb IV.3 [4, 5]: strong

B2: ScFV-1-coil: ScFV derived from mAb IV.3 with pepE coil plus StrepTag II (SEQ ID 93) (protein)
scFv: B1 scFv
modifications: ScFV
- IgG2a response ([4]; on Alum or in PBS): no IgG2a response was induced
- IgG1 response against ScFV-1-coil ([4]; only in the presence of Alum): induced an IgG1 response
